The source of these data is patent publication US20170248602A1.

In test [1] the target is SNAP-25 peptide comprising amino acids 134-206 of SEQ ID NO:5 (human). The test is described as follows: SPR (BIAcore 3000), peptide on CM5 chip, 1:1 fit.
The target of test [2] is SNAP-25 peptide comprising amino acids 134-197 of SEQ ID NO:5 (human). The test is described as follows: SPR (BIAcore 3000), peptide on CM5 chip, 1:1 fit. A general note: SPR reads the build-up and loss of mass on a sensor chip optically.

pKd: −log10 of the molar value.

On to “MC-6050 mouse α-SNAP-25 monoclonal antibody (Research & Diagnostic Antibodies)”, for which, in test [1], the pKd (in general, the Kd on a negative log10 scale, so that one unit is a factor of ten) was 4.70; the koff (commonly the rate constant with which the complex falls apart) was 0.00607 s⁻¹; the kon (as a rule, the rate constant with which the complex forms) came to 306 M⁻¹ s⁻¹. In test [2], this substance had a negative-log Kd (pKd) of 9.30, a koff of 0.000882 s⁻¹ and a kon of 1.78e+06 M⁻¹ s⁻¹.
In test [1], “MC-6053 mouse α-SNAP-25 monoclonal antibody (Research & Diagnostic Antibodies)” gave a pKd of 6.62 and a koff of 2.56e-05 s⁻¹. Also, in test [2], the pKd is 9.29, the koff is 0.00118 s⁻¹ and the kon was determined as 2.32e+06 M⁻¹ s⁻¹.
